T1: Interleukin-12 (IL-12) (human, UniProt P29459 23-219; P29460 23-328)
T1 sequence 1: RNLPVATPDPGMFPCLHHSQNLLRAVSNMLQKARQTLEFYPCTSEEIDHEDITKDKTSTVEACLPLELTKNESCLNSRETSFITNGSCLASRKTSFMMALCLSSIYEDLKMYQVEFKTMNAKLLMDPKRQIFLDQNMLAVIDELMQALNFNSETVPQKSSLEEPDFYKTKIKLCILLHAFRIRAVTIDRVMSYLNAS
T1 sequence 2: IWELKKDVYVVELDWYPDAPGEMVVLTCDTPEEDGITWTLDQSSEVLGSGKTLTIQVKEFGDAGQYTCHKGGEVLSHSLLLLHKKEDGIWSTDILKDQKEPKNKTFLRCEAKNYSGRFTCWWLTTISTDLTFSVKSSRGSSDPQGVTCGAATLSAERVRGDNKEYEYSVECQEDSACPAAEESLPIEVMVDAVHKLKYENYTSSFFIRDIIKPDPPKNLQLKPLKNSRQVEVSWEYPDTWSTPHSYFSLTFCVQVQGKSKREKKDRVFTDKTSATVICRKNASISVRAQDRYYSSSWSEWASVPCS


Legend:
[1] = biological target: T1, Interleukin-12 (IL-12); assay: cell-based or functional assay
[2] = biological target: T1, Interleukin-12 (IL-12); assay: affinity for IL-12; method not stated
[3] = biological target: collagen present in fibrotic rat livers (rat); assay: 24 h incubation with fibrotic rat liver slices, recovered protein by MSD U-PLEX
Experimental: (§1) FIGS. 26A-26B: Precision cut liver slices were prepared from fibrotic rat livers. IL-12 Fc fusion proteins (BI-057 or BI-065; in amounts indicated in figure legends) were added to the slices and incubated for 24 hours (FIG. 26A) or 2 hours followed by 22 h recovery period (FIG. 26B). After 2 h incubation, fusion proteins were thoroughly washed and incubated for another 22 h in medium before harvest. After 24 h, slices were collected, lysed and homogenized. The amount of IL-12 Fc fusion proteins recovered from the slices was determined with the MSD U-PLEX Biomarker Assay using IL-12 Fc fusion proteins as standards.
(§2) Briefly, tissue cores are cut from the fibrotic rat liver using a 5 mm cylindrical motorized tissue coring press (Alabama R&D, MD5000), and 300 μm thick tissue slices are cut using a tissue slicer (Alabama R&D, MD6000). All tissue slices are cultured with a floating culture system (60 rpm) in 12 well plates (Nunc) in a humidified incubator, 95% O₂/5% CO₂, 37° C. in 1.3 mL supplemented William's Medium E (Life Technologies).

[4] = biological target: T2, rat collagen I (rat, UniProt P02454 152-1207; P02466 86-1125); assay: ELISA on plates coated with rat collagen I (Corning), detection with anti-human Fc
T2 construct: Bought; also called Rat collagen (Corning)
Experimental: (§3) Collagen binding properties were further evaluated in ELISA assay. Chimeric IL-12 Fc fusion protein BI-065 or chimeric IL-12 Fc fusion protein containing collagen I TME linker BI-057 were added to collagen I-coated plates. To this end, plates were coated either with rat collagen I (FIG. 25A) or with human skin collagen I (FIG. 25B).
(§4) Briefly, high binding microplates (greiner) are coated over night at 4° C. with rat collagen (Corning) or human collagen (Millipore/R&D) diluted in coating buffer (Invitrogen) with a concentration of 0.005 mg/mL. IL-12 Fc fusion proteins are diluted in PBS+1% BSA and added to collagen precoated plates for 2 hours. The plates are blocked with 1% BSA before addition of proteins to minimize unspecific binding. Next, plates are washed 3× followed by incubation with biotinylated anti-human Fc antibody (Invitrogen). After additional washing step, Streptavidin-HRP are added to the plates. Substrate are added to plates after a washing step and plates are read in ELISA reader (Tecan).

[5] = biological target: T3, human collagen type 1 (human, UniProt P02452 162-1218; P08123 80-1119, limits assumed); assay: ELISA on plates coated with human collagen I (Millipore/R&D), detection with anti-human Fc
T3 construct: Bought or cell-made collagen; also called human collagen I; human collagen (Millipore/R&D)
Experimental: as §3, §4

[6] = biological target: collagen present in fibrotic rat livers (rat); assay: 2 h incubation, wash and 22 h culture of fibrotic rat liver slices, recovered protein by MSD U-PLEX
Experimental: as §1, §2

T3 sequence (P02452 162-1218 limits assumed, chain 1 of 2): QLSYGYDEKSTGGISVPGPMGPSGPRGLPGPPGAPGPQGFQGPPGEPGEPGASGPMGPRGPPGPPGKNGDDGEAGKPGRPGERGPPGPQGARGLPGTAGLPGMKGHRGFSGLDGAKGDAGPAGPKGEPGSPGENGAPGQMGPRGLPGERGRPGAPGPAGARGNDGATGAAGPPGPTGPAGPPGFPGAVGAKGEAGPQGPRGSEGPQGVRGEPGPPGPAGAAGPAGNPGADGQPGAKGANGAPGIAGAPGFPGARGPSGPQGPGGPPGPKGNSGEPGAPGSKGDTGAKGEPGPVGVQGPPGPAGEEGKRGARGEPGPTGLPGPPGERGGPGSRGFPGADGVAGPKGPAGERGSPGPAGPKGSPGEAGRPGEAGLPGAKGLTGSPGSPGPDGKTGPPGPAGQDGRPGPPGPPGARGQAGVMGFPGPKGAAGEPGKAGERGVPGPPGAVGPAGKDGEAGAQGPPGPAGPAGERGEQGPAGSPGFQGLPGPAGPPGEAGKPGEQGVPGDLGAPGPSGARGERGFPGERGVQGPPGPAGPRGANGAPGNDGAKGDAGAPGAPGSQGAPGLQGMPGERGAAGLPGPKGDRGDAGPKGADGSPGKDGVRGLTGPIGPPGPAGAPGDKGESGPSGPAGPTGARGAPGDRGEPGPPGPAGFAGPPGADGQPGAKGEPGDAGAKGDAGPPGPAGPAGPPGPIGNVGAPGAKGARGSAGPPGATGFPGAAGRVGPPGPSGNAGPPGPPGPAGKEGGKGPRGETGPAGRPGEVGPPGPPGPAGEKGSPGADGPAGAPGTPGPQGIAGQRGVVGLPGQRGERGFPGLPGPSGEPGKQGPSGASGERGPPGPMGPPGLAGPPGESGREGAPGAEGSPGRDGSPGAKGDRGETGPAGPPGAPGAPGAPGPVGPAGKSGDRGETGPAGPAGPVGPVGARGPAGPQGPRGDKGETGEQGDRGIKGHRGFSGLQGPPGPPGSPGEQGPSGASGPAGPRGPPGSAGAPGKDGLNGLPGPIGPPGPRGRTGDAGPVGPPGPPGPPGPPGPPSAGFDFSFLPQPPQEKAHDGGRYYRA
T3 sequence (P08123 80-1119 limits assumed, chain 2 of 2): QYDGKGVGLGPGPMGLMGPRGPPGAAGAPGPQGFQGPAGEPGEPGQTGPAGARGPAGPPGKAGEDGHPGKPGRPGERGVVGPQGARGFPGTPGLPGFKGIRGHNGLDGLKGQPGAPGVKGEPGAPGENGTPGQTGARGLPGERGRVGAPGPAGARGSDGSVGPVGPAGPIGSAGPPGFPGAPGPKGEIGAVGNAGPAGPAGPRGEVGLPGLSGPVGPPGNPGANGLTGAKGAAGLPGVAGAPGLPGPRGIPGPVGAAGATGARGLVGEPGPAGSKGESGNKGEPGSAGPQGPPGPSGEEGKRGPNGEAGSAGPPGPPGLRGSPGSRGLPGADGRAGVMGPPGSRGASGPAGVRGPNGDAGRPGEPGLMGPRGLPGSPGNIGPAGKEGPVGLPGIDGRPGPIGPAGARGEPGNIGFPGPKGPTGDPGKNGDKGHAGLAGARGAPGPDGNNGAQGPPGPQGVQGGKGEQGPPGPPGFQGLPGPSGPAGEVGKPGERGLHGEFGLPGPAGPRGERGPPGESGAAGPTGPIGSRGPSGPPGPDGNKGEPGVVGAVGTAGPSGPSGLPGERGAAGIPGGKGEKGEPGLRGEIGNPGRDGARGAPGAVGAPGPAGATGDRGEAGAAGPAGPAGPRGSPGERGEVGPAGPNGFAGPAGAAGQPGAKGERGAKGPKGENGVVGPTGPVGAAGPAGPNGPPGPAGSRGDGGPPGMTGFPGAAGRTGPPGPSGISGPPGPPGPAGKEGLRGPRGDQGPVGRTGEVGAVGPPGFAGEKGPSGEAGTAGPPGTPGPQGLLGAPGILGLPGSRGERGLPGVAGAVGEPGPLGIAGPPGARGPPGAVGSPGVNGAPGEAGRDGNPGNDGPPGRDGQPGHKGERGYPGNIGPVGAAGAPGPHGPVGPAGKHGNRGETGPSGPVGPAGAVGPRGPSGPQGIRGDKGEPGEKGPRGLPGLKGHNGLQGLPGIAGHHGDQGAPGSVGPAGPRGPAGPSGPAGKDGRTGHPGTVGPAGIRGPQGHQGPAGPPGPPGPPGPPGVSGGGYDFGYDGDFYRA
T2 sequence (P02454 152-1207, chain 1 of 2): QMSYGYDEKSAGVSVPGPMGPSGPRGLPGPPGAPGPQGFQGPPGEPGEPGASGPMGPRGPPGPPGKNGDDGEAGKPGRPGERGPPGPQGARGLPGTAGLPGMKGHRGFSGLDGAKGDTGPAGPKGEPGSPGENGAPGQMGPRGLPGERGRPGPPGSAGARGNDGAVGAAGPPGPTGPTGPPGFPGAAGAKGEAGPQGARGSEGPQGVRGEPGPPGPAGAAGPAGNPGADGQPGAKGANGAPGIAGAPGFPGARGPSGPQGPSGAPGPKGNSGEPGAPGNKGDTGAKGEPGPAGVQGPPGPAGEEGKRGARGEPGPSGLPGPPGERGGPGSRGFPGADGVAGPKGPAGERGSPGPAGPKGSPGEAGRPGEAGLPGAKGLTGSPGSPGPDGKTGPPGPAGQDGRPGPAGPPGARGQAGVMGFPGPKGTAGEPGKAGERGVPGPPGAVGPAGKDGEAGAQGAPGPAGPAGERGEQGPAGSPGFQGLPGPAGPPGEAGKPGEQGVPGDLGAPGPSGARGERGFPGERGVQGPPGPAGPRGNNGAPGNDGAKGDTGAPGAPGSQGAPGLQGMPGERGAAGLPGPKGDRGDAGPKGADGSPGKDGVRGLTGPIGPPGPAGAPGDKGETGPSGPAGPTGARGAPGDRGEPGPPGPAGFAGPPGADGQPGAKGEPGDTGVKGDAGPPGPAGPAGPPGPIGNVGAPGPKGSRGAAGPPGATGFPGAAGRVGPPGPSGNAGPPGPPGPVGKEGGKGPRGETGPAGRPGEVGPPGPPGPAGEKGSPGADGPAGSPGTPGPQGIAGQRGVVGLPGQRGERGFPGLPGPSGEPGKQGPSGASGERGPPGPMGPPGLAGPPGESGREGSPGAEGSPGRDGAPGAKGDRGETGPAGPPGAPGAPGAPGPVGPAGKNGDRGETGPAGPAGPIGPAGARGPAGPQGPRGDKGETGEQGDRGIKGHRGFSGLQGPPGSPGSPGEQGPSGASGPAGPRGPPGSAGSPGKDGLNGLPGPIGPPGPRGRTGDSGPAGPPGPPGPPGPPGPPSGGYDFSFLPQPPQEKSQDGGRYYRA
T2 sequence (P02466 86-1125, chain 2 of 2): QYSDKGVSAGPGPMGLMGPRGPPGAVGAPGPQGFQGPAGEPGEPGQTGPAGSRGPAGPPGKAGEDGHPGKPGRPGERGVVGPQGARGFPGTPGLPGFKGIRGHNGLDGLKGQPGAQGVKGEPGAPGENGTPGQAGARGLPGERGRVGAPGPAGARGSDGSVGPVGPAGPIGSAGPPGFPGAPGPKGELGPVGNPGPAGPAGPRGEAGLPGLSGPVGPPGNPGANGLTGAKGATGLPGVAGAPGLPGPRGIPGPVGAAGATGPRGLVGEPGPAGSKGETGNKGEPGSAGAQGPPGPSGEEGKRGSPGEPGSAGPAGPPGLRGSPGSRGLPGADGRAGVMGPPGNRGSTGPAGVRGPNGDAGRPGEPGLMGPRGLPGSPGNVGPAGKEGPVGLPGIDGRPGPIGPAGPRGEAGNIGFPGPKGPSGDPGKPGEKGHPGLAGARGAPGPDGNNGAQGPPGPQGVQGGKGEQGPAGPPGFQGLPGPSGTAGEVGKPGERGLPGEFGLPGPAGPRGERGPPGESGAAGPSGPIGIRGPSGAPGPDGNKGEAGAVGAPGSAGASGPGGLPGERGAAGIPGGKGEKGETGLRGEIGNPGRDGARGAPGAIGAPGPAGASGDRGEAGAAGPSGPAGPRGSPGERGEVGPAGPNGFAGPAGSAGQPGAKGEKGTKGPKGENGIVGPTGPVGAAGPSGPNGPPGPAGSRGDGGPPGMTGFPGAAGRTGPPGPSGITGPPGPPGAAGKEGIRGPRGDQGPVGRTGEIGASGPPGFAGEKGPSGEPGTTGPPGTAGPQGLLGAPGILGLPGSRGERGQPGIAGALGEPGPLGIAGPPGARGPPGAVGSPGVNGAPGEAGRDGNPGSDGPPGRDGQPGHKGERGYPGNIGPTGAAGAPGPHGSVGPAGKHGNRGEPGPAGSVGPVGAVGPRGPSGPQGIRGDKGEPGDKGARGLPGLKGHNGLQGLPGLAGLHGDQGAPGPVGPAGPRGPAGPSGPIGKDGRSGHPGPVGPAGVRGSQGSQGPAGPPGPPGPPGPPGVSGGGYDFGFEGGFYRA

| IC50 [1] [nM] | Kd [2] [nM] | fold decrease in fold recovery from liver slices against BI-065 [3] [fold] | EC50 [4] [nM] | EC50 [5] [nM] | fold recovery from liver slices against BI-065 [6] [fold] | Binder |
| --- | --- | --- | --- | --- | --- | --- |
| 0.61 | 3.5 |  |  |  |  | BI-039 (VHH) VHH: QVQLVESGGGLVQAGGSLRLSCAASGRTFETIAMGWFRQVPGKEREFVAVIRGSGVATYYPDSVKGRFTISKDSAKNTVYLQMNNLKPEDTAVYYCAATTNRFKNTDYTTYDYWGQGTQVTVSS |
| 0.89 | 3.4 |  |  |  |  | BI-063 (VHH, Variant of BI-039; also called 61-Gft-106; BI-063 VHH) VHH: EVQLVESGGGLVQPGGSLRLSCAASGRTFETIAMGWFRQAPGKEREFVAVIRGSGVATYYPDSVKGRFTISKDSSKNTVYLQMNSLRAEDTAVYYCAATTNRFKNTDYTTYDYWGQGTQVTVSS |
| 0.44 | 3.7 |  |  |  |  | BI-048 (VHH, Humanised variant of BI-039, the selected masking domain; also called Mix 13) VHH: EVQLVESGGGLVQPGGSLRLSCAASGRTFETIAMGWFRQAPGKGLEFVAVIRGSGVATYYAESVKGRFTISKDSSKNTVYLQMNSLRAEDTAVYYCAATTNRFKNTDYTTYDYWGQGTQVTVSS |
| 2.5 | 4.1 |  |  |  |  | BI-120 (VHH) VHH: EVQLVESGGGLVQPGGSLRLSCAASGRTFETIAMGWFRQAPGKEREFVAVIRGSGVATYYPESVKGRFTISKDSSKNTVYLQMNSLRAEDTAVYYCAATTNRFKNTEYTTYDYWGQGTQVTVSS |
| 10 | 30 |  |  |  |  | BI-123 (VHH) VHH: EVQLVESGGGLVQPGGSLRLSCAASGRTFETIAMGWFRQAPGKEREFVAVIRGSGVATSYPESVKGRFTISKDSSKNTVYLQMNSLRAEDTAVYYCAATTNRFKNTDYTTYDYWGQGTQVTVSS |
| 2.4 | 8.5 |  |  |  |  | BI-119 (VHH) VHH: EVQLVESGGGLVQPGGSLRLSCAASGRTFETIAMGWFRQAPGKEREFVAVIRGSGVATYYPESVKGRFTISKDSSKNTVYLQMNSLRAEDTAVYYCAATTNRFKNRDYTTYDYWGQGTQVTVSS |
| 0.36 | 3 |  |  |  |  | BI-117 (VHH, also called 61-Gft-106_D62E) VHH: EVQLVESGGGLVQPGGSLRLSCAASGRTFETIAMGWFRQAPGKEREFVAVIRGSGVATYYPESVKGRFTISKDSSKNTVYLQMNSLRAEDTAVYYCAATTNRFKNTDYTTYDYWGQGTQVTVSS |
| 5.7 | 12 |  |  |  |  | BI-049 (VHH, Variant of BI-039, mask of BI-054; also called Mix 15) VHH: EVQLVESGGGLVQPGGSLRLSCAASGRTFETIAMGWFRQAPGKGLEFVAVIRGSGVATYYAESVKGRFTISKDSSKNTVYLQMNSLRAEDTAVYYCAATTNRFKNREYTTYDYWGQGTQVTVSS |
|  |  | > 10 | 26 | 75 | 10 | BI-057 (Fc fusion, Knob-into-hole heterodimer; human p40, mouse p35; also called chimeric IL-12 Fc fusion protein containing collagen I TME linker) chain 1: EPKSSDKTHTCPPCPAPEAAGGPSVFLFPPKPKDTLMISRTPEVTCVVVDVSHEDPEVKFNWYVDGVEVHNAKTKPREEQYNSTYRVVSVLTVLHQDWLNGKEYKCKVSNKALPAPIEKTISKAKGQPREPQVYTLPPSREEMTKNQVSLWCLVKGFYPSDIAVEWESNGQPENNYKTTPPVLDSDGSFFLYSKLTVDKSRWQQGNVFSCSVMHEALHNHYTQKSLSLSPGGGGGSGGGGGPLGVRGGGGGSIWELKKDVYVVELDWYPDAPGEMVVLTCDTPEEDGITWTLDQSSEVLGSGKTLTIQVKEFGDAGQYTCHKGGEVLSHSLLLLHKKEDGIWSTDILKDQKEPKNKTFLRCEAKNYSGRFTCWWLTTISTDLTFSVKSSRGSSDPQGVTCGAATLSAERVRGDNKEYEYSVECQEDSACPAAEESLPIEVMVDAVHKLKYENYTSSFFIRDIIKPDPPKNLQLKPLKNSRQVEVSWEYPDTWSTPHSYFSLTFCVQVQGKSKREKKDRVFTDKTSATVICRKNASISVRAQDRYYSSSWSEWASVPCSGGGGSGGGGSGGGGSRVIPVSGPARCLSQSRNLLKTTDDMVKTAREKLKHYSCTAEDIDHEDITRDQTSTLKTCLPLELHKNESCLATRETSSTTRGSCLPPQKTSLMMTLCLGSIYEDLKMYQTEFQAINAALQNHNHQQIILDKGMLVAIDELMQSLNHNGETLRQKPPVGEADPYRVKMKLCILLHAFSTRVVTINRVMGYLSSAGSGGLRELHLDNN chain 2: EPKSSDKTHTCPPCPAPEAAGGPSVFLFPPKPKDTLMISRTPEVTCVVVDVSHEDPEVKFNWYVDGVEVHNAKTKPREEQYNSTYRVVSVLTVLHQDWLNGKEYKCKVSNKALPAPIEKTISKAKGQPREPQVYTLPPSREEMTKNQVSLSCAVKGFYPSDIAVEWESNGQPENNYKTTPPVLDSDGSFFLVSKLTVDKSRWQQGNVFSCSVMHEALHNRFTQKSLSLSPGGGGGSGGGGSGGGGSGGGGSGGGGSEVQLVESGGGLVQPGGSLRLSCAASGRTFETIAMGWFRQAPGKGLEFVAVIRGSGVATYYAESVKGRFTISKDSSKNTVYLQMNSLRAEDTAVYYCAATTNRFKNTDYTTYDYWGQGTQVTVSSA |

— patent US20240262879A1 (Boehringer Ingelheim, published 2024)
